Experimental findings from the supplement of paper PMC5998384 are described below.

Series [1] concerns HeLa Kyoto. Briefly: solubility in G1/S (NP-40 vs SDS abundance) (log2 ratio); higher = more soluble. Conditions: cell cycle stage: G1/S.
Series [2] concerns HeLa Kyoto. Briefly: solubility change mitosis vs G1/S (difference of NP-40 vs SDS log2 ratios) (log2 ratio difference); higher = more soluble in mitosis.
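Wherever solubility change mitosis vs G1/S (difference of NP-40 vs SDS log2 ratios) is given: synchronized HeLa Kyoto cells (double thymidine block for G1/S, nocodazole release for mitosis), protein amounts in NP-40 versus SDS lysates quantified by mass spectrometry, three biological replicates.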
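Wherever solubility in G1/S (NP-40 vs SDS abundance) is given: HeLa Kyoto cells arrested at G1/S by double thymidine block, proteins quantified by TMT10plex mass spectrometry in mild NP-40 versus SDS extracts, three biological replicates.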

In the case of “MDQFGDILEGEVDHSFFDSDFEEGKKCETNSVFDKQNDDPKERIDKDTKNVNSNTGMQTTENYLTEKGNERNVKFPPEHPVENDVTQTVSSFSLPASSRSKKLCDVTTGLKIHVSIPNRIPKIVKEGEDDYYTDGEESSDDGKKYHVKSKSAKPSTNVKKSIRKKYCKVSSSSSSSLSSSSSGSGTDCLDAGSDSHLSDSSPSSKSSKKHVSGITLLSPKHKYKSGIKSTETQPSSTTPKCGHYPEESEDTVTDVSPLSTPDISPLQSFELGIANDQKVKIKKQENVSQEIYEDVEDLKNNSKYLKAAKKGKEKHEPDVSSKSSSVLDSSLDHRHKQKVLHDTMDLNHLLKAFLQLDKKGPQKHHFDQPSVAPGKNYSFTREEVRQIDRENQRLLKELSRQAEKPGSKSTIPRSADHPPKLYHSALNRQKEQQRIERENLALLKRLEAVKPTVGMKRSEQLMDYHRNMGYLNSSPLSRRARSTLGQYSPLRASRTSSATSGLSCRSERSAVDPSSGHPRRRPKPPNVRTAWL [CFAP97]”, the “solubility in G1/S (log2)” value with HeLa Kyoto [1] was 0.0651. In addition, in the series with HeLa Kyoto [2], the “solubility change mitosis (log2)” value is -0.039.

Consider “MDRRKKPLDVTASSLVDLKAELFRKQEEFKQEKLLKDSGVFGKPKTTNKKPSIWSKQNVGVSNRAEKDAEQKIEEQKTLDKAREKLEEKAKLYEKMTKGDFIDEEVEDMYLVDFTQKIIDKRKEMEASGAHRDSQKAGERDDDEENLPEGEIPPPQDPSEEWVDYVDSLGRSRRCMRKDLPDLLEMDKNLQGRLFISPANEKTLLSEDMRKELQRQQWEEEEREALKRPMGPVHYEDIRENEARQLGVGYFAFARDKELRNKQMKTLEMLREQTTDQRTKRENIKEKRKAILEARLAKLRQKKMKKSKEGGTEEENRDGDVIGPLPPEPEAVPTPRPAAQSSKVEVIVQERKDTKPGVPHIREWDRGKEFSFGYWSKRQSDLRAERDPEFAPPSDYFVGQKRTGFSSSQAWSRPGPAQSDPGQCPDQSHGPSPEHTSPTPAPDNPPQAPTVTFKTLDDMISYYKQVT [CCDC174]”, for which the “solubility in G1/S (log2)” value in the series on HeLa Kyoto [1] was 0.12. In the series on HeLa Kyoto [2], the “solubility change mitosis (log2)” value is 0.139.

For the sequence “MDSSSSSSAAGLGAVDPQLQHFIEVETQKQRFQQLVHQMTELCWEKCMDKPGPKLDSRAEACFVNCVERFIDTSQFILNRLEQTQKSKPVFSESLSD [TIMM8A]”, in the series on HeLa Kyoto [1], the “solubility in G1/S (log2)” value was -0.653. Further, the “solubility change mitosis (log2)” value in the series with HeLa Kyoto [2] stood at 0.392.

“MEAEESEKAATEQEPLEGTEQTLDAEEEQEESEEAACGSKKRVVPGIVYLGHIPPRFRPLHVRNLLSAYGEVGRVFFQAEDRFVRRKKKAAAAAGGKKRSYTKDYTEGWVEFRDKRIAKRVAASLHNTPMGARRRSPFRYDLWNLKYLHRFTWSHLSEHLAFERQVRRQRLRAEVAQAKRETDFYLQSVERGQRFLAADGDPARPDGSWTFAQRPTEQELRARKAARPGGRERARLATAQDKARSNKGLLARIFGAPPPSESMEGPSLVRDS [ABT1]”: in the series with HeLa Kyoto [1], the “solubility in G1/S (log2)” value is -0.95. The “solubility change mitosis (log2)” value in the series on HeLa Kyoto [2] is 0.803.

On to “MEDERSFSDICGGRLALQRRYYSPSCREFCLSCPRLSLRSLTAVTCTVWLAAYGLFTLCENSMILSAAIFITLLGLLGYLHFVKIDQETLLIIDSLGIQMTSSYASGKESTTFIEMGKVKDIVINEAIYMQKVIYYLCILLKDPVEPHGISQVVPVFQSAKPRLDCLIEVYRSCQEILAHQKATSTSP [PIGH]”, for which the “solubility in G1/S (log2)” value in the series with HeLa Kyoto [1] is -0.116. In the series with HeLa Kyoto [2], the “solubility change mitosis (log2)” value came to 0.146.

With “MEDGTPKHIIQMTGFKMEEKEALVKLLLKLDCTFIKSEKYKNCTHLIAERLCKSEKFLAACAAGKWILTKDYIIHSAKSGRWLDETTYEWGYKIEKDSRYSPQMQSAPKRWREELKRTGAPGAFHRWKVVLLVRTDKRSDSLIRVLEAGKANVILPKSSPSGITHVIASNARIKAEKEKDNFKAPFYPIQYLGDFLLEKEIQNDEDSQTNSVWTEHSNEETNKDFRKDAGFLEMKGALRETMYRTQKEMQNHEDVNVGSILIQHHKKEKFSGSSKDLKFVKMRNTFGSHTYENQKEIKKKDEDIQRSYTLRRKRKKGKESNCKKGVEHEKIKSTLRRHIYNRDQKEMKNSIFAEYAKESKAMAIKTDVDVVEIKNTLRKHIYRAQAVRYNCIRIDKQPVYNVEVKNAEFPRGVLNLIESLIEGHFFKEAIEELSTLQAHYIPPVCVLHALLENVLQDNIDTFSGRYFHILSALLHLHPPWKSPAMSRYYLELFQCPTCMKGAWSLVEVLIRSCLFNESFCHQISENIGSKVLHLTLLKFFFNLIESEVQHLSQKLYDWSDSQNLKITGKAMLLEIFWSGSETSGLLTKPVNMLLEWTIYSHKEKFKSNDVFKHELAYLLAGILGAAIDYWIFLGLKMGRNVMRHMSDDLGSYVSLSCDDFSSQELEIFICSFSSSWLQMFVAEAVFKKLCLQSSGSVSSEPLSLQKMVYSYLPALGKTGVLGSGKIQVSKKIGQRPCFDSQRTLLMLNGTKQKQVEGLPELLDLNLAKCSSSLKKLKKKSEGELSCSKENCPSVVKKMNFHKTNLKGETALHRACINNQVEKLILLLSLPGIDINVKDNAGWTPLHEACNYGNTVCVQEILQRCPEVDLLTQVDGVTPLHDALSNGHVEIGKLLLQHGGPVLLQQRNAKGELPLDYVVSPQIKEELFAITKIEDTVENFHAQAEKHFHYQQLEFGSFLLSRMLLNFCSIFDLSSEFILASKGLTHLNELLMACKSHKETTSVHTDWLLDLYAGNIKTLQKLPHILKELPENLKVCPGVHTEALMITLEMMCRSVMEFS [SLF1]”, in the series with HeLa Kyoto [1], the “solubility in G1/S (log2)” value was -0.991. For the same sequence, the “solubility change mitosis (log2)” value in the series on HeLa Kyoto [2] was 0.644.

As for “MEDSQDLNEQSVKKTCTESDVSQSQNSRSMEMQDLASPHTLVGGGDTPGSSKLEKSNLSSTSVTTNGTGGENMTVLNTADWLLSCNTPSSATMSLLAVKTEPLNSSETTATTGDGALDTFTGSVITSSGYSPRSAHQYSPQLYPSKPYPHILSTPAAQTMSAYAGQTQYSGMQQPAVYTAYSQTGQPYSLPTYDLGVMLPAIKTESGLSQTQSPLQSGCLSYSPGFSTPQPGQTPYSYQMPGSSFAPSSTIYANNSVSNSTNFSGSQQDYPSYTAFGQNQYAQYYSASTYGAYMTSNNTADGTPSSTSTYQLQESLPGLTNQPGEFDTMQSPSTPIKDLDERTCRSSGSKSRGRGRKNNPSPPPDSDLERVFVWDLDETIIVFHSLLTGSYAQKYGKDPPMAVTLGLRMEEMIFNLADTHLFFNDLEECDQVHIDDVSSDDNGQDLSTYSFATDGFHAAASSANLCLPTGVRGGVDWMRKLAFRYRRVKELYNTYKNNVGGLLGPAKRDAWLQLRAEIEGLTDSWLTNALKSLSIISTRSNCINVLVTTTQLIPALAKVLLYSLGGAFPIENIYSATKIGKESCFERIMQRFGRKVVYVVIGDGVEEEQAAKKHNMPFWRISSHSDLLALHQALELEYL [EYA4]”, the “solubility in G1/S (log2)” value in the series on HeLa Kyoto [1] was -0.147. The “solubility change mitosis (log2)” value in the series with HeLa Kyoto [2] was -0.16.

For “MEEERGSALAAESALEKNVAELTVMDVYDIASLVGHEFERVIDQHGCEAIARLMPKVVRVLEILEVLVSRHHVAPELDELRLELDRLRLERMDRIEKERKHQKELELVEDVWRGEAQDLLSQIAQLQEENKQLMTNLSHKDVNFSEEEFQKHEGMSERERQVMKKLKEVVDKQRDEIRAKDRELGLKNEDVEALQQQQTRLMKINHDLRHRVTVVEAQGKALIEQKVELEADLQTKEQEMGSLRAELGKLRERLQGEHSQNGEEEPETEPVGEESISDAEKVAMDLKDPNRPRFTLQELRDVLHERNELKSKVFLLQEELAYYKSEEMEEENRIPQPPPIAHPRTSPQPESGIKRLFSFFSRDKKRLANTQRNVHIQESFGQWANTHRDDGYTEQGQEALQHL [RILPL1]”, the “solubility in G1/S (log2)” value in the series with HeLa Kyoto [1] was 0.246. For the same sequence, the “solubility change mitosis (log2)” value with HeLa Kyoto [2] is -0.0361.

On to “MEEIKPASASCVSKEKPSKVSDLISRFEGGSSLSNYSDLKKESAVNLNAPRTPGRHGLTTTPQQKLLSQHLPQRQGNDTDKTQGAQTCVANGVMAAQNQMECEEEKAATLSSDTSIQASEPLLDTHIVNGERDETATAPASPTTDSCDGNASDSSYRTPGIGPVLPLEERGAETETKVQERENGESPLELEQLDQHHEMKETNEQKLHKIANELLLTERAYVNRLDLLDQVFYCKLLEEANRGSFPAEMVNKIFSNISSINAFHSKFLLPELEKRMQEWETTPRIGDILQKLAPFLKMYGEYVKGFDNAMELVKNMTERIPQFKSVVEEIQKQKICGSLTLQHHMLEPVQRIPRYEMLLKDYLRKLPPDSLDWNDAKKSLEIISTAASHSNSAIRKMENLKKLLEIYEMLGEEEDIVNPSNELIKEGQILKLAARNTSAQERYLFLFNNMLLYCVPKFSLVGSKFTVRTRVGIDGMKIVETQNEEYPHTFQVSGKERTLELQASSAQDKEEWIKALQETIDAFHQRHETFRNAIAKDNDIHSEVSTAELGKRAPRWIRDNEVTMCMKCKEPFNALTRRRHHCRACGYVVCWKCSDYKAQLEYDGGKLSKVCKDCYQIISGFTDSEEKKRKGILEIESAEVSGNSVVCSFLQYMEKSKPWQKAWCVIPKQDPLVLYMYGAPQDVRAQATIPLLGYVVDEMPRSADLPHSFKLTQSKSVHSFAADSEELKQKWLKVILLAVTGETPGGPNEHPATLDDHPEPKKKSEC [FGD4]”, for which the “solubility in G1/S (log2)” value with HeLa Kyoto [1] is -0.163. Besides, the “solubility change mitosis (log2)” value in the series with HeLa Kyoto [2] is -0.00729.

“MEESMEEEEGGSYEAMMDDQNHNNWEAAVDGFRQPLPPPPPPSSIPAPAREPPGGQLLAVPAVSVDRKGPKEGLPMGPQPPPEANGVIMMLKSCDAAAAVAKAAPAPTASSTININTSTSKFLMNVITIEDYKSTYWPKLDGAIDQLLTQSPGDYIPISYEQIYSCVYKCVCQQHSEQMYSDLIKKITNHLERVSKELQASPPDLYIERFNIALGQYMGALQSIVPLFIYMNKFYIETKLNRDLKDDLIKLFTEHVAEKHIYSLMPLLLEAQSTPFQVTPSTMANIVKGLYTLRPEWVQMAPTLFSKFIPNILPPAVESELSEYAAQDQKFQRELIQNGFTRGDQSRKRAGDELAYNSSSACASSRGYR [CACUL1]”: the “solubility in G1/S (log2)” value in the series on HeLa Kyoto [1] was 0.278. Further, the “solubility change mitosis (log2)” value with HeLa Kyoto [2] was 0.103.

Turning to “MEFLLGNPFSTPVGQCLEKATDGSLQSEDWTLNMEICDIINETEEGPKDAIRALKKRLNGNRNYREVMLALTVLETCVKNCGHRFHILVANRDFIDSVLVKIISPKNNPPTIVQDKVLALIQAWADAFRSSPDLTGVVHIYEELKRKGVEFPMADLDALSPIHTPQRSVPEVDPAATMPRSQSQQRTSAGSYSSPPPAPYSAPQAPALSVTGPITANSEQIARLRSELDVVRGNTKVMSEMLTEMVPGQEDSSDLELLQELNRTCRAMQQRIVELISRVSNEEVTEELLHVNDDLNNVFLRYERFERYRSGRSVQNASNGVLNEVTEDNLIDLGPGSPAVVSPMVGNTAPPSSLSSQLAGLDLGTESVSGTLSSLQQCNPRDGFDMFAQTRGNSLAEQRKTVTYEDPQAVGGLASALDNRKQSSEGIPVAQPSVMDDIEVWLRTDLKGDDLEEGVTSEEFDKFLEERAKAAEMVPDLPSPPMEAPAPASNPSGRKKPERSEDALFAL [TOM1L2]”, in the series with HeLa Kyoto [1], the “solubility in G1/S (log2)” value is 0.292. In addition, the “solubility change mitosis (log2)” value in the series on HeLa Kyoto [2] is -0.0085.
